{
  "source": "paper doi:10.1101/238154",
  "key": {"[1]": {"biological_target": "SAGA DUB module containing Ubp8^C146A (yeast) (UniProt P50102)", "sequence (P50102 whole entry C146A, chain 1 of 4)": "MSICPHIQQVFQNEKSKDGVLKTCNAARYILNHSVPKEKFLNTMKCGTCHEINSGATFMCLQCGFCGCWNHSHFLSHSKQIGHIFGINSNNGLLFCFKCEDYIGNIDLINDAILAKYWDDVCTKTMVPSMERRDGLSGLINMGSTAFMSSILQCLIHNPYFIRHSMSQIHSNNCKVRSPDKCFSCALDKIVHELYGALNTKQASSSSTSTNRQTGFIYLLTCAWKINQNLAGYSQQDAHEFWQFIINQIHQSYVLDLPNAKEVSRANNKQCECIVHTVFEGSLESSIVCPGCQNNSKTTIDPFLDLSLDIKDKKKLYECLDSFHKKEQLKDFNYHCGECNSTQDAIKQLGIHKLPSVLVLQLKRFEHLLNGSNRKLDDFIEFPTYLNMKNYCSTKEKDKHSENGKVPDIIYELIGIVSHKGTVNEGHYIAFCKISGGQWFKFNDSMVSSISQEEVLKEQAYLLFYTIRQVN", "sequence (Q03067 whole entry, chain 2 of 4, further chain)": "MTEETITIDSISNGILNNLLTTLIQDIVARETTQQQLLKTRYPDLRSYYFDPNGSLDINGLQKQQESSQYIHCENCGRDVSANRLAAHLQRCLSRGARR", "sequence (Q6WNK7 whole entry, chain 3 of 4, further chain)": "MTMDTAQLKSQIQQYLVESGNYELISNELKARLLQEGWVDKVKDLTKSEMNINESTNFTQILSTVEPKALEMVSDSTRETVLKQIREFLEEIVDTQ", "sequence (P53165 1-96, chain 4 of 4, further chain)": "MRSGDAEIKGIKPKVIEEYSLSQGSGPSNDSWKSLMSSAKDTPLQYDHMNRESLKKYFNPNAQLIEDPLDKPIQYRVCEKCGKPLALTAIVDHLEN", "assay": "ITC"}, "[2]": {"biological_target": "SAGA DUB module containing Ubp8^C146S (yeast) (UniProt P50102)", "sequence (P50102 whole entry C146S, chain 1 of 4)": "as the sequence (P50102 whole entry C146A, chain 1 of 4) above, with A146S counted along it", "sequence (Q03067 whole entry, chain 2 of 4, further chain)": "as the sequence (Q03067 whole entry, chain 2 of 4, further chain) above", "sequence (Q6WNK7 whole entry, chain 3 of 4, further chain)": "as the sequence (Q6WNK7 whole entry, chain 3 of 4, further chain) above", "sequence (P53165 1-96, chain 4 of 4, further chain)": "as the sequence (P53165 1-96, chain 4 of 4, further chain) above", "assay": "ITC"}, "[3]": {"biological_target": "FlAsH tagged K63-linked diubiquitin (UniProt P0CG47)", "assay": "fluorescence polarisation"}},
  "data": [
    {"substance": "K48-linked diubiquitin (from UniProt P0CG47 1-76)", "values": [
      {"measurement": "Kd", "setting": "[1]", "value": 0.47, "unit": "µM"},
      {"measurement": "Kd", "setting": "[2]", "value": 4.6, "unit": "µM"}
    ]},
    {"substance": "OTUD1^C320A catalytic domain (residues 287-435) (from UniProt Q5VV17 287-435) (domain or fragment)", "values": [
      {"measurement": "Kd", "setting": "[3]", "value": 40, "unit": "µM"}
    ]}
  ]
}
